Results reported in US7927849B2, “Laccase enzyme and use thereof” (AB Enzymes OY, priority 2004, dated 2011).

Columns and labels:
[1] = Redox potential, Pt-AgCl/KCl microelectrode; type: physicochemical; details: pH 5.0
Method: (§1) The purified recombinant Thielavia arenaria TaLcc1 was characterized in terms of pH optimum, thermal stability, and pI as described in Example 2. The molecular weight was determined by MALDI-TOF mass spectrometry on a Ultraflex™ time-of-flight instrument (BrukerDaltonics, Germany) as previously described (Palonen et al., 2003). The redox potential of TaLcc1 was also determined with a combined Pt-AgCl/KCl microelectrode at pH 5.0 according to Sigoillot et al (2004)

[2] = Denim bleaching, effect of enzyme dosage (Wascator); details: 60° C., pH 6
Method: Lee Cooper Jeans previously washed with ECOSTONE® cellulases (Example 7) were treated with a TaLcc1 laccase product from Trichoderma strain RF5598 and DeniLite Base from Novozymes using different laccase dosages. The laccase treatments were performed with Electrolux's Wascator FOM 71 CLS washer extractor under optimal conditions for each enzyme, shown in Table 13. Methyl syringate (Example 7) was used as a mediator. Laccase was inactivated after draining by raising the pH above 11 by NaOH (10 min, 60° C.) and rinsing 3 times. The fabrics were dried in a tumbler.
The bleaching effect was evaluated by measuring the colour after laccase treatment as reflectance values (as in Example 7) and comparing the values to previously measured values after cellulase treatment.

[3] = Denim bleaching at different pH-values (Launder Ometer); details: 50° C.; for Increase of L* / L* after laccase treatment / b* after laccase treatment: 200 nkat/g, 30 min
Method: Lee Cooper jeans (Hamilton, 111-1060-55522-65, MASI Company Oy, Finland, former name M.A.S.I. jeans Oy) that were made of ring spun yarn in warp and open-end yarn in weft and were previously desized and treated with neutral ECOSTONE® cellulase were used as a test material. Laccase treatments were performed in LP-2 Launder Ometer as follows. About 10 g of denim swatches (15×14 cm) were loaded into 1.2 liter containers containing 200 ml Mc Ilvaine's citrate phosphate buffer pH 5, 6 or 7 and the containers were temperated. Enzyme with or without the mediator (methyl syringate, DeniLite II Assist, Novozymes) was added. Enzyme was dosed 200 nkat/g and the mediator 10 mg/g on the weight of fabric. […] The Launder Ometer was run at 50° C. for 30 min and after that the temperature in Launder was raised to 80° C. for 10 min. The swatches were rinsed carefully with warm water, dried half-dry in a tumbler and after that air dried.
The bleaching effect was evaluated by measuring the colour as reflectance values with the Minolta Spectrophotometer CM 1000 (Minolta Co.) using L*a*b* color space coordinates (illuminant D65/2°). The colour from both sides of the swatches was measured before and after the laccase treatment. Each measurement was the average of several, at least ten, measurements.

[4] = Denim bleaching at different temperatures (Launder Ometer); details: 200 nkat/g, 30 min, pH 6
Method: The test system and denim were as in Example 7, except that the conditions during the laccase and mediator treatment in Launder were 30 min, pH 6 and temperature 30-80° C. Also, the enzyme was inactivated by an alkaline treatment instead of raising the temperature in Launder as follows. After removing swatches from the containers they were soaked in warm water containing NaOH (pH 11.5) for 10 min and rinsed carefully with warm water. The swatches were dried half-dry in a tumbler and after that air dried. The bleaching effect was evaluated by measuring the colour as reflectance values as in Example 7.

[5] = Isoelectric focusing (pI); type: physicochemical; details: pH range 3-9, ABTS staining
Method: Molecular weight of the Thielavia arenaria laccase (wt TaLcc1) was determined on SDS-PAGE according to Laemmli (1970). The gels used in the SDS-PAGE analysis were ready-made 12% Tris HCl gels (BioRad). Protein bands were visualized by staining with Coomassie Brilliant Blue (R 350; Pharmacia) and compared with molecular weight markers (Prestained Protein Marker Broad Range #7708S; New England BioLabs, Beverly, Mass.). The molecular weight of the Thielavia areanaria laccase was approximately 80 kDa. The isoelectric point of the laccase was determined with isoelectric focusing within the pH range of 3-9 (Pharmalyte IEF, Pharmacia) on a LKB 2117 Multiphor II Electrophoresis System (LKB Pharmacia, Bromma, Sweden) according to the manufacturer's instructions.
as §1

[6] = 20 nkat/g, mediator 1 mg/g, 30 min
[7] = 20 nkat/g, mediator 1 mg/g, 60 min
[8] = 100 nkat/g, mediator 5 mg/g, 30 min
[9] = 100 nkat/g, mediator 5 mg/g, 60 min

B1: TaLcc1: Recombinant Thielavia arenaria ALKO4197 laccase 1 (SEQ ID NO: 12) produced in Trichoderma reesei strains RF5597/RF5598 (protein)
chain: MKSWAAAVALMVGILSPHAAAAPPANPVQRDMLQVLEARQSGPTCNTPSNRACWTNGFDINTDYEVSTPNTGRTVAYQLTLTEKENWIGPDGVLKNVVMLVNDKIIGPTIRANWGDNIEVTVINNLKTNGTSMHWHGLRQLGNVFNDGANGVTECPIPPKGGRKTYKFRATQYGTSWYHSHFSAQYGNGVVGTIQIDGPASLPYDIDLGVFPLMDYYYRSADELVHFTQSNGAPPSDNVLFNGTARHPETGAGQWYNVTLTPGKRHRLRIINTSTDNHFQVSLVGHNMTVIATDMVPVNAFTVSSLFLAVGQRYDVTIDANSPVGNYWFNVTFGDGLCGSSNNKFPAAIFRYQGAPATLPTDQGLPVPNHMCLDNLNLTPVVTRSAPVNNFVKRPSNTLGVTLDIGGTPLFVWKVNGSAINVDWGKPILDYVMSGNTSYPVSDNIVQVDAVDQWTYWLIENDPTNPIVSLPHPMHLHGHDFLVLGRSPDELPSAGVRHIFDPAKDLPRLKGNNPVRRDVTMLPAGGWLLLAFKTDNPGAWLFHCHIAWHVSGGLSVDFLERPNDLRTQLNSNAKRADRDDFNRVCREWNAYWPTNPFPKIDSGLRHRFVEESEWMVR
modifications: Thielavia arenaria ALKO4197; (1)..(617) Deduced amino acid sequence of Thielavia arenaria ALKO4197 laccase 1 (Ta Lcc1)
Q: With B1 as the molecule, how does the “E^0” value [1] read?
A: Its value is 560 mV.

Q: What about the “Increase of L*” value [2, 6] of the same molecule?
A: Its value is 12.24.

Q: And the “L* after laccase treatment” value [2, 6]?
A: Its value is 40.61.

Q: And the “b* after laccase treatment” value [2, 6]?
A: The value was −16.16.

Q: And the “Increase of L*” value [2, 7]?
A: Its value is 15.09.

Q: And the “L* after laccase treatment” value [2, 7]?
A: Its value is 42.72.

Q: And the “b* after laccase treatment” value [2, 7]?
A: Its value is −15.61.

Q: What about the “Increase of L*” value [2, 8] of the same molecule?
A: The value was 21.88.

Q: What about the “L* after laccase treatment” value [2, 8] of the same molecule?
A: Its value is 49.84.

Q: And the “b* after laccase treatment” value [2, 8]?
A: The value was −13.75.

Q: And the “Increase of L*” value [2, 9]?
A: The value was 25.68.

Q: And the “L* after laccase treatment” value [2, 9]?
A: The value was 53.46.

Q: What about the “b* after laccase treatment” value [2, 9] of the same molecule?
A: The value was −11.64.

Q: And the “Increase of L*” value ([3]; mediator 0 mg/g, pH 5)?
A: Its value is 0.14.

Q: And the “L* after laccase treatment” value ([3]; mediator 0 mg/g, pH 5)?
A: The value was 28.22.

Q: What about the “b* after laccase treatment” value ([3]; mediator 0 mg/g, pH 5) of the same molecule?
A: Its value is −18.35.

Q: What about the “Increase of L*” value ([3]; mediator 0 mg/g, pH 6) of the same molecule?
A: Its value is 0.82.

Q: What about the “L* after laccase treatment” value ([3]; mediator 0 mg/g, pH 6) of the same molecule?
A: Its value is 29.58.

Q: What about the “b* after laccase treatment” value ([3]; mediator 0 mg/g, pH 6) of the same molecule?
A: The value was −18.38.

Q: What about the “Increase of L*” value ([3]; mediator 0 mg/g, pH 7) of the same molecule?
A: Its value is 0.37.

Q: What about the “L* after laccase treatment” value ([3]; mediator 0 mg/g, pH 7) of the same molecule?
A: The value was 27.80.

Q: What about the “b* after laccase treatment” value ([3]; mediator 0 mg/g, pH 7) of the same molecule?
A: The value was −18.50.

Q: What about the “Increase of L*” value ([3]; mediator 10 mg/g, pH 5) of the same molecule?
A: The value was 13.52.

Q: What about the “L* after laccase treatment” value ([3]; mediator 10 mg/g, pH 5) of the same molecule?
A: Its value is 42.04.

Q: What about the “b* after laccase treatment” value ([3]; mediator 10 mg/g, pH 5) of the same molecule?
A: The value was −14.78.

Q: And the “Increase of L*” value ([3]; mediator 10 mg/g, pH 6)?
A: Its value is 21.19.

Q: What about the “L* after laccase treatment” value ([3]; mediator 10 mg/g, pH 6) of the same molecule?
A: The value was 48.97.

Q: And the “b* after laccase treatment” value ([3]; mediator 10 mg/g, pH 6)?
A: Its value is −12.36.

Q: And the “Increase of L*” value ([3]; mediator 10 mg/g, pH 7)?
A: Its value is 16.92.

Q: What about the “L* after laccase treatment” value ([3]; mediator 10 mg/g, pH 7) of the same molecule?
A: The value was 44.71.

Q: What about the “b* after laccase treatment” value ([3]; mediator 10 mg/g, pH 7) of the same molecule?
A: The value was −14.43.

Q: And the “optimum pH in denim bleaching” value ([3]; pH 5 to 7 tested)?
A: Its value is 6.

Q: And the “Increase of L*” value ([4]; mediator 0 mg/g, 80° C.)?
A: The value was 0.64.

Q: And the “L* after laccase treatment” value ([4]; mediator 0 mg/g, 80° C.)?
A: Its value is 30.27.

Q: And the “b* after laccase treatment” value ([4]; mediator 0 mg/g, 80° C.)?
A: Its value is −18.62.

Q: And the “Increase of L*” value ([4]; mediator 10 mg/g, 30° C.)?
A: The value was 4.10.

Q: What about the “L* after laccase treatment” value ([4]; mediator 10 mg/g, 30° C.) of the same molecule?
A: The value was 33.68.

Q: What about the “b* after laccase treatment” value ([4]; mediator 10 mg/g, 30° C.) of the same molecule?
A: Its value is −19.17.

Q: And the “Increase of L*” value ([4]; mediator 10 mg/g, 40° C.)?
A: The value was 8.68.

Q: And the “L* after laccase treatment” value ([4]; mediator 10 mg/g, 40° C.)?
A: Its value is 37.49.

Q: And the “b* after laccase treatment” value ([4]; mediator 10 mg/g, 40° C.)?
A: Its value is −18.64.

Q: What about the “Increase of L*” value ([4]; mediator 10 mg/g, 50° C.) of the same molecule?
A: The value was 14.59.

Q: And the “L* after laccase treatment” value ([4]; mediator 10 mg/g, 50° C.)?
A: The value was 42.99.

Q: What about the “b* after laccase treatment” value ([4]; mediator 10 mg/g, 50° C.) of the same molecule?
A: The value was −17.06.

Q: And the “Increase of L*” value ([4]; mediator 10 mg/g, 60° C.)?
A: Its value is 18.42.

Q: And the “L* after laccase treatment” value ([4]; mediator 10 mg/g, 60° C.)?
A: Its value is 47.56.

Q: What about the “b* after laccase treatment” value ([4]; mediator 10 mg/g, 60° C.) of the same molecule?
A: Its value is −14.55.

Q: And the “Increase of L*” value ([4]; mediator 10 mg/g, 70° C.)?
A: Its value is 17.85.

Q: And the “L* after laccase treatment” value ([4]; mediator 10 mg/g, 70° C.)?
A: The value was 46.94.

Q: And the “b* after laccase treatment” value ([4]; mediator 10 mg/g, 70° C.)?
A: Its value is −13.82.

Q: What about the “Increase of L*” value ([4]; mediator 10 mg/g, 80° C.) of the same molecule?
A: Its value is 9.85.

Q: What about the “L* after laccase treatment” value ([4]; mediator 10 mg/g, 80° C.) of the same molecule?
A: Its value is 39.24.

Q: What about the “b* after laccase treatment” value ([4]; mediator 10 mg/g, 80° C.) of the same molecule?
A: Its value is −15.74.

Q: What about the pI [5] of the same molecule?
A: Its pI is 5.5-6.9.
